Measured values taken from the supplement of paper PMC5998384.

What was measured:
[1] = system: HeLa Kyoto; test: melting temperature (median over replicates), in situ; higher = more thermally stable
[2] = system: HeLa Kyoto; test: solubility change mitosis vs G1/S (difference of NP-40 vs SDS log2 ratios) (log2 ratio difference); higher = more soluble in mitosis
[3] = system: HeLa Kyoto; test: solubility in G1/S (NP-40 vs SDS abundance) (log2 ratio); higher = more soluble; conditions: cell cycle stage: G1/S
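Throughout, for melting temperature (median over replicates), in situ: HeLa Kyoto cells synchronized by double thymidine or nocodazole block, proteins quantified by TMT10plex mass spectrometry, three independent biological replicates.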
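Throughout, for solubility change mitosis vs G1/S (difference of NP-40 vs SDS log2 ratios): synchronized HeLa Kyoto cells (double thymidine block for G1/S, nocodazole release for mitosis), protein amounts in NP-40 versus SDS lysates quantified by mass spectrometry, three biological replicates.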
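Throughout, for solubility in G1/S (NP-40 vs SDS abundance): HeLa Kyoto cells arrested at G1/S by double thymidine block, proteins quantified by TMT10plex mass spectrometry in mild NP-40 versus SDS extracts, three biological replicates.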

| Substance | melting temperature ([1]; cell cycle stage: G1/S) [°C] | melting temperature ([1]; cell cycle stage: mitosis) [°C] | solubility change mitosis (log2) [2] | solubility in G1/S (log2) [3] |
| --- | --- | --- | --- | --- |
| MLRRVTVAAVCATRRKLCEAGRELAALWGIETRGRCEDSAAARPFPILAMPGRNKAKSTCSCPDLQPNGQDLGENSRVARLGADESEEEGRRGSLSNAGDPEIVKSPSDPKQYRYIKLQNGLQALLISDLSNMEGKTGNTTDDEEEEEVEEEEEDDDEDSGAEIEDDDEEGFDDEDEFDDEHDDDLDTEDNELEELEERAEARKKTTEKQSAAALCVGVGSFADPDDLPGLAHFLEHMVFMGSLKYPDENGFDAFLKKHGGSDNASTDCERTVFQFDVQRKYFKEALDRWAQFFIHPLMIRDAIDREVEAVDSEYQLARPSDANRKEMLFGSLARPGHPMGKFFWGNAETLKHEPRKNNIDTHARLREFWMRYYSSHYMTLVVQSKETLDTLEKWVTEIFSQIPNNGLPRPNFGHLTDPFDTPAFNKLYRVVPIRKIHALTITWALPPQQQHYRVKPLHYISWLVGHEGKGSILSFLRKKCWALALFGGNGETGFEQNSTYSVFSISITLTDEGYEHFYEVAYTVFQYLKMLQKLGPEKRIFEEIRKIEDNEFHYQEQTDPVEYVENMCENMQLYPLQDILTGDQLLFEYKPEVIGEALNQLVPQKANLVLLSGANEGKCDLKEKWFGTQYSIEDIENSWAELWNSNFELNPDLHLPAENKYIATDFTLKAFDCPETEYPVKIVNTPQGCLWYKKDNKFKIPKAYIRFHLISPLIQKSAANVVLFDIFVNILTHNLAEPAYEADVAQLEYKLVAGEHGLIIRVKGFNHKLPLLFQLIIDYLAEFNSTPAVFTMITEQLKKTYFNILIKPETLAKDVRLLILEYARWSMIDKYQALMDGLSLESLLSFVKEFKSQLFVEGLVQGNVTSTESMDFLKYVVDKLNFKPLEQEMPVQFQVVELPSGHHLCKVKALNKGDANSEVTVYYQSGTRSLREYTLMELLVMHMEEPCFDFLRTKQTLGYHVYPTCRNTSGILGFSVTVGTQATKYNSEVVDKKIEEFLSSFEEKIENLTEEAFNTQVTALIKLKECEDTHLGEEVDRNWNEVVTQQYLFDRLAHEIEALKSFSKSDLVNWFKAHRGPGSKMLSVHVVGYGKYELEEDGTPSSEDSNSSCEVMQLTYLPTSPLLADCIIPITDIRAFTTTLNLLPYHKIVK [NRD1] | 50.5 | 50.9 | -0.188 | 0.116 |
| MEESEPERKRARTDEVPAGGSRSEAEDEDDEDYVPYVPLRQRRQLLLQKLLQRRRKGAAEEEQQDSGSEPRGDEDDIPLGPQSNVSLLDQHQHLKEKAEARKESAKEKQLKEEEKILESVAEGRALMSVKEMAKGITYDDPIKTSWTPPRYVLSMSEERHERVRKKYHILVEGDGIPPPIKSFKEMKFPAAILRGLKKKGIHHPTPIQIQGIPTILSGRDMIGIAFTGSGKTLVFTLPVIMFCLEQEKRLPFSKREGPYGLIICPSRELARQTHGILEYYCRLLQEDSSPLLRCALCIGGMSVKEQMETIRHGVHMMVATPGRLMDLLQKKMVSLDICRYLALDEADRMIDMGFEGDIRTIFSYFKGQRQTLLFSATMPKKIQNFAKSALVKPVTINVGRAGAASLDVIQEVEYVKEEAKMVYLLECLQKTPPPVLIFAEKKADVDAIHEYLLLKGVEAVAIHGGKDQEERTKAIEAFREGKKDVLVATDVASKGLDFPAIQHVINYDMPEEIENYVHRIGRTGRSGNTGIATTFINKACDESVLMDLKALLLEAKQKVPPVLQVLHCGDESMLDIGGERGCAFCGGLGHRITDCPKLEAMQTKQVSNIGRKDYLAHSSMDF [DDX41] | 47.5 | 49 | 0.325 | -0.425 |
| MEDPFEEADQPTTEPGMVLDSVEAGDTTPPTKRKSKFSGFGKIFKPWKWRKKKSSDKFKETSEVLERKISMRKPREELVKRGVLLEDPEQGGEDPGKPSDAMLKNGHTTPIGNARSSSPVQVEEEPVRLASLRKAIPEEDLKKRLGSTGSQPNSEAESVPENVPKPPLLPPKRPLSSSHEASEGQAKDATSSGGTARFIISTSITTAPAATTAATSLAKTVNLSVTPSPAPRTLPAAPASTNTTATPSLTHMVPAKQPPIPPPKPAHRNSNPVIAELSQAINSGTLLSKPSPPLPPKRGIPSTSVPTLESAAAITTKTPSDEREKSTCSMGSELLPMISPRSPSPPLPTHIPPEPPRTPPFPAKTFQVVPEIEFPPSLDLHQEIPQQEDQKKEVPKRILDQNFGEPHIPSRLPPLPLHIRIQQALTSPLPMTPILEGSHRAHSLLFENSDSFSEDSSTLGRTRSLPITIEMLKVPDDEEEEEQTCPSTFSEEMTPTSVIPKLPQCLREEEEKESDSDSEGPIQYRDEEDEDESYQSALANKVKRKDTLAMKLNHRPSEPELNLNSWPCKSKEEWNEIRHQIGNTLIRRLSQRPTPEELEQRNILQPKNEADRQAEKREIKRRLTRKLSQRPTVAELLARKILRFNEYVEVTDAQDYDRRADKPWTKLTPADKAAIRKELNEFKSSEMEVHEESKHFTRYHRP [PHACTR4] | 54.3 | 54.9 | 0.0651 | 0.401 |
| MHRGVGPAFRVVRKMAASGAEPQVLVQYLVLRKDLSQAPFSWPAGALVAQACHAATAALHTHRDHPHTAAYLQELGRMRKVVLEAPDETTLKELAETLQQKNIDHMLWLEQPENIATCIALRPYPKEEVGQYLKKFRLFK [PTRHD1] | 55.6 | 52.6 | 0.625 | -0.278 |
| MTSTGQDSTTTRQRRSRQNPQSPPQDSSVTSKRNIKKGAVPRSIPNLAEVKKKGKMKKLGQAMEEDLIVGLQGMDLNLEAEALAGTGLVLDEQLNEFHCLWDDSFPEGPERLHAIKEQLIQEGLLDRCVSFQARFAEKEELMLVHSLEYIDLMETTQYMNEGELRVLADTYDSVYLHPNSYSCACLASGSVLRLVDAVLGAEIRNGMAIIRPPGHHAQHSLMDGYCMFNHVAVAARYAQQKHRIRRVLIVDWDVHHGQGTQFTFDQDPSVLYFSIHRYEQGRFWPHLKASNWSTTGFGQGQGYTINVPWNQVGMRDADYIAAFLHVLLPVALEFQPQLVLVAAGFDALQGDPKGEMAATPAGFAQLTHLLMGLAGGKLILSLEGGYNLRALAEGVSASLHTLLGDPCPMLESPGAPCRSAQASVSCALEALEPFWEVLVRSTETVERDNMEEDNVEESEEEGPWEPPVLPILTWPVLQSRTGLVYDQNMMNHCNLWDSHHPEVPQRILRIMCRLEELGLAGRCLTLTPRPATEAELLTCHSAEYVGHLRATEKMKTRELHRESSNFDSIYICPSTFACAQLATGAACRLVEAVLSGEVLNGAAVVRPPGHHAEQDAACGFCFFNSVAVAARHAQTISGHALRILIVDWDVHHGNGTQHMFEDDPSVLYVSLHRYDHGTFFPMGDEGASSQIGRAAGTGFTVNVAWNGPRMGDADYLAAWHRLVLPIAYEFNPELVLVSAGFDAARGDPLGGCQVSPEGYAHLTHLLMGLASGRIILILEGGYNLTSISESMAACTRSLLGDPPPLLTLPRPPLSGALASITETIQVHRRYWRSLRVMKVEDREGPSSSKLVTKKAPQPAKPRLAERMTTREKKVLEAGMGKVTSASFGEESTPGQTNSETAVVALTQDQPSEAATGGATLAQTISEAAIGGAMLGQTTSEEAVGGATPDQTTSEETVGGAILDQTTSEDAVGGATLGQTTSEEAVGGATLAQTTSEAAMEGATLDQTTSEEAPGGTELIQTPLASSTDHQTPPTSPVQGTTPQISPSTLIGSLRTLELGSESQGASESQAPGEENLLGEAAGGQDMADSMLMQGSRGLTDQAIFYAVTPLPWCPHLVAVCPIPAAGLDVTQPCGDCGTIQENWVCLSCYQVYCGRYINGHMLQHHGNSGHPLVLSYIDLSAWCYYCQAYVHHQALLDVKNIAHQNKFGEDMPHPH [HDAC6] | 50.5 | 52 | -0.0591 | -0.0107 |
| MTTSSIRRQMKNIVNNYSEAEIKVREATSNDPWGPSSSLMTEIADLTYNVVAFSEIMSMVWKRLNDHGKNWRHVYKALTLLDYLIKTGSERVAQQCRENIFAIQTLKDFQYIDRDGKDQGINVREKSKQLVALLKDEERLKAERAQALKTKERMAQVATGMGSNQITFGRGSSQPNLSTSHSEQEYGKAGGSPASYHGSPEASLCPQHRTGAPLGQSEELQPLSQRHPFLPHLGLASRPNGDWSQPCLTCDRAARATSPRVSSELEQARPQTSGEEELQLQLALAMSREVAEQEERLRRGDDLRLQMALEESRRDTVKIPKKKEHGSLPQQTTLLDLMDALPSSGPAAQKAEPWGPSASTNQTNPWGGPAAPASTSDPWPSFGTKPAASIDPWGVPTGATVQSVPKNSDPWAASQQPASSAGKRASDAWGAVSTTKPVSVSGSFELFSNLNGTIKDDFSEFDNLRTSKKTAESVTSLPSQNNGTTSPDPFESQPLTVASSKPSSARKTPESFLGPNAALVNLDSLVTRPAPPAQSLNPFLAPGAPATSAPVNPFQVNQPQPLTLNQLRGSPVLGTSTSFGPGPGVESMAVASMTSAAPQPALGATGSSLTPLGPAMMNMVGSVGIPPSAAQATGTTNPFLL [EPN2] | 54.9 | 54.6 | -0.0178 | 0.656 |
| ASAP2 | 50.7 | 51.4 | -0.37 | 0.122 |
| MEGGFGSDFGGSGSGKLDPGLIMEQVKVQIAVANAQELLQRMTDKCFRKCIGKPGGSLDNSEQKCIAMCMDRYMDAWNTVSRAYNSRLQRERANM [TIMM13] | 53.8 |  | 0.337 | -0.594 |
| MPGGCSRGPAAGDGRLRLARLALVLLGWVSSSSPTSSASSFSSSAPFLASAVSAQPPLPDQCPALCECSEAARTVKCVNRNLTEVPTDLPAYVRNLFLTGNQLAVLPAGAFARRPPLAELAALNLSGSRLDEVRAGAFEHLPSLRQLDLSHNPLADLSPFAFSGSNASVSAPSPLVELILNHIVPPEDERQNRSFEGMVVAALLAGRALQGLRRLELASNHFLYLPRDVLAQLPSLRHLDLSNNSLVSLTYVSFRNLTHLESLHLEDNALKVLHNGTLAELQGLPHIRVFLDNNPWVCDCHMADMVTWLKETEVVQGKDRLTCAYPEKMRNRVLLELNSADLDCDPILPPSLQTSYVFLGIVLALIGAIFLLVLYLNRKGIKKWMHNIRDACRDHMEGYHYRYEINADPRLTNLSSNSDV [TPBG] | 53.4 | 53.4 | 0.104 | 0.234 |
| MFVSDFRKEFYEVVQSQRVLLFVASDVDALCACKILQALFQCDHVQYTLVPVSGWQELETAFLEHKEQFHYFILINCGANVDLLDILQPDEDTIFFVCDTHRPVNVVNVYNDTQIKLLIKQDDDLEVPAYEDIFRDEEEDEEHSGNDSDGSEPSEKRTRLEEEIVEQTMRRRQRREWEARRRDILFDYEQYEYHGTSSAMVMFELAWMLSKDLNDMLWWAIVGLTDQWVQDKITQMKYVTDVGVLQRHVSRHNHRNEDEENTLSVDCTRISFEYDLRLVLYQHWSLHDSLCNTSYTAARFKLWSVHGQKRLQEFLADMGLPLKQVKQKFQAMDISLKENLREMIEESANKFGMKDMRVQTFSIHFGFKHKFLASDVVFATMSLMESPEKDGSGTDHFIQALDSLSRSNLDKLYHGLELAKKQLRATQQTIASCLCTNLVISQGPFLYCSLMEGTPDVMLFSRPASLSLLSKHLLKSFVCSTKNRRCKLLPLVMAAPLSMEHGTVTVVGIPPETDSSDRKNFFGRAFEKAAESTSSRMLHNHFDLSVIELKAEDRSKFLDALISLLS [CDC45] | 47.6 | 48.5 | -0.126 | -0.233 |
| KIF13B | 50.2 | 50.3 | -0.193 | -0.0369 |
